Experimental data published in paper PMC4201289 (Genes & Development, 2014).

T1: Mcm4 (subunit in the Mcm2–7 double hexamer) (S. cerevisiae, UniProt P30665 1-933)
T1 sequence: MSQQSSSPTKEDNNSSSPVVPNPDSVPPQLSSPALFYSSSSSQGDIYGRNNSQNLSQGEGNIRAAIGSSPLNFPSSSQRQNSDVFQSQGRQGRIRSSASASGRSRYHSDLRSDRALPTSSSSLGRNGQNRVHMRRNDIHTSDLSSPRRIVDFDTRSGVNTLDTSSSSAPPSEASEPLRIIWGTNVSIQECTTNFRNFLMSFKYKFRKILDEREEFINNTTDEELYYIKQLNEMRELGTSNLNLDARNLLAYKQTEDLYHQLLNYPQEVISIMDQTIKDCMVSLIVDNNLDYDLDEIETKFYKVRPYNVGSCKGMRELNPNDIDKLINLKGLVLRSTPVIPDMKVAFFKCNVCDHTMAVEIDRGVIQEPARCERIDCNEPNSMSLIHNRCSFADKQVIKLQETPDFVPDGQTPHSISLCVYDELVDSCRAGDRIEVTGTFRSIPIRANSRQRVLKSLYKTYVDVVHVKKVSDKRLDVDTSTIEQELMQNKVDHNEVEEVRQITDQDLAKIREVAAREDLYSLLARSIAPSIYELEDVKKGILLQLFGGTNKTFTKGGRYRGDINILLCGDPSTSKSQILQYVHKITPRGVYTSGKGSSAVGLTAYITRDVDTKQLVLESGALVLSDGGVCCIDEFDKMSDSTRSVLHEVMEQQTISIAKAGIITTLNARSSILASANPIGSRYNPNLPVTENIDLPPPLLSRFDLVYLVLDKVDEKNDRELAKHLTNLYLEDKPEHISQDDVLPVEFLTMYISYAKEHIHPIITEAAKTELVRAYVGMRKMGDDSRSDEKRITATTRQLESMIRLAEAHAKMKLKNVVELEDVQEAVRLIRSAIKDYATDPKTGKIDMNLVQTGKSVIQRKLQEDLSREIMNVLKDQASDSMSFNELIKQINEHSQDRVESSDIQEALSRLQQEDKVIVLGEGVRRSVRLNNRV


What was measured:
[1] = target: Mcm2–7 hexamer (minichromosome maintenance proteins 2–7) (S. cerevisiae) (UniProt P29469); assay: cryo-EM structure
[2] = target: T1, Mcm4 (subunit in the Mcm2–7 double …); assay: negative stain EM, 3D reconstruction

stoichiometry N [1] | binding result [2] | Molecule
2 | – | Mcm2–7 hexamer (minichromosome maintenance proteins 2–7) (from UniProt P29469;P24279;P30665;P29496;P53091;P38132) (complex)
– | binds | Mcm5 (subunit in the Mcm2–7 double hexamer) (natural protein) MSFDRPEIYSAPVLQGESPNDDDNTEIIKSFKNFILEFRLDSQFIYRDQLRNNILVKNYSLTVNMEHLIGYNEDIYKKLSDEPSDIIPLFETAITQVAKRISILSRAQSANNNDKDPENTSMDTDSLLLNSLPTFQLILNSNANQIPLRDLDSEHVSKIVRLSGIIISTSVLSSRATYLSIMCRNCRHTTSITINNFNSITGNTVSLPRSCLSTIESESSMANESNIGDESTKKNCGPDPYIIIHESSKFIDQQFLKLQEIPELVPVGEMPRNLTMTCDRYLTNKVIPGTRVTIVGIYSIYNSKNGAGSGRSGGGNGGSGVAIRTPYIKILGIQSDVETSSIWNSVTMFTEEEEEEFLQLSRNPKLYEILTNSIAPSIFGNEDIKKAIVCLLMGGSKKILPDGMRLRGDINVLLLGDPGTAKSQLLKFVEKVSPIAVYTSGKGSSAAGLTASVQRDPMTREFYLEGGAMVLADGGVVCIDEFDKMRDEDRVAIHEAMEQQTISIAKAGITTVLNSRTSVLAAANPIYGRYDDLKSPGDNIDFQTTILSRFDMIFIVKDDHNEERDISIANHVINIHTGNANAMQNQQEENGSEISIEKMKRYITYCRLKCAPRLSPQAAEKLSSNFVTIRKQLLINELESTERSSIPITIRQLEAIIRITESLAKLELSPIAQERHVDEAIRLFQASTMDAASQDPIGGLNQASGTSLSEIRRFEQELKRRLPIGWSTSYQTLRREFVDTHRFSQLALDKALYALEKHETIQLRHQGQNIYRSGV
– | binds | Mcm2 (subunit in the Mcm2–7 double hexamer) (natural protein) MSDNRRRRREEDDSDSENELPPSSPQQHFRGGMNPVSSPIGSPDMINPEGDDNEVDDVPDIDEVEEQMNEVDLMDDNMYEDYAADHNRDRYDPDQVDDREQQELSLSERRRIDAQLNERDRLLRNVAYIDDEDEEQEGAAQLDEMGLPVQRRRRRRQYEDLENSDDDLLSDMDIDPLREELTLESLSNVKANSYSEWITQPNVSRTIARELKSFLLEYTDETGRSVYGARIRTLGEMNSESLEVNYRHLAESKAILALFLAKCPEEMLKIFDLVAMEATELHYPDYARIHSEIHVRISDFPTIYSLRELRESNLSSLVRVTGVVTRRTGVFPQLKYVKFNCLKCGSILGPFFQDSNEEIRISFCTNCKSKGPFRVNGEKTVYRNYQRVTLQEAPGTVPPGRLPRHREVILLADLVDVSKPGEEVEVTGIYKNNYDGNLNAKNGFPVFATIIEANSIKRREGNTANEGEEGLDVFSWTEEEEREFRKISRDRGIIDKIISSMAPSIYGHRDIKTAVACSLFGGVPKNVNGKHSIRGDINVLLLGDPGTAKSQILKYVEKTAHRAVFATGQGASAVGLTASVRKDPITKEWTLEGGALVLADKGVCLIDEFDKMNDQDRTSIHEAMEQQSISISKAGIVTTLQARCSIIAAANPNGGRYNSTLPLAQNVSLTEPILSRFDILCVVRDLVDEEADERLATFVVDSHVRSHPENDEDREGEELKNNGESAIEQGEDEINEQLNARQRRLQRQRKKEEEISPIPQELLMKYIHYARTKIYPKLHQMDMDKVSRVYADLRRESISTGSFPITVRHLESILRIAESFAKMRLSEFVSSYDLDRAIKVVVDSFVDAQKVSVRRQLRRSFAIYTLGH
